Where a chain is given by its changes, count along the chain named.
T1: recombinant human Fc gamma receptor CD32b/c (human, UniProt P31994 46-217)
T1 sequence (looked up): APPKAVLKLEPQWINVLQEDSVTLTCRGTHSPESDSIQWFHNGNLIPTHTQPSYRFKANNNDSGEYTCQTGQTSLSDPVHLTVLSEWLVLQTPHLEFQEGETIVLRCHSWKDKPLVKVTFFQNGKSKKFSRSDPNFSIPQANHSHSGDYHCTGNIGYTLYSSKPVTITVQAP

T2: recombinant human Fc gamma receptor CD32a 131R (human, UniProt P12318 36-218)
T2 sequence (looked up): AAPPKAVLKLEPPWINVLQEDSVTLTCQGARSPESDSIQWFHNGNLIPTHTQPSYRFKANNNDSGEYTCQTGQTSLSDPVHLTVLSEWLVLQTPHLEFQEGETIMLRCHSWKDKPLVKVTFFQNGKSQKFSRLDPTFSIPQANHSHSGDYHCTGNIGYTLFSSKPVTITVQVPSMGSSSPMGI

T3: recombinant human Fc gamma receptor CD32a 131H (human, UniProt P12318 36-218)
T3 sequence (looked up): T2 sequence (looked up) with R132H

T4: CD19 (UniProt P15391 20-291)
T4 sequence (looked up): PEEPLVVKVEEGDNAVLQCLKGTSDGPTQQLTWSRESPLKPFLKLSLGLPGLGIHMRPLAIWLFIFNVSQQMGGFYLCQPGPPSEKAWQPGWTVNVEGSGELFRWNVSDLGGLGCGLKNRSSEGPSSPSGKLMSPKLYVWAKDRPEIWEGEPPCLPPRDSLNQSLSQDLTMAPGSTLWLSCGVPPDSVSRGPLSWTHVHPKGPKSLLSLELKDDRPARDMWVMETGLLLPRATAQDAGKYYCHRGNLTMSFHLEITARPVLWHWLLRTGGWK

T5: CD20 Lipoparticles (UniProt P11836 1-297)
T5 sequence (looked up): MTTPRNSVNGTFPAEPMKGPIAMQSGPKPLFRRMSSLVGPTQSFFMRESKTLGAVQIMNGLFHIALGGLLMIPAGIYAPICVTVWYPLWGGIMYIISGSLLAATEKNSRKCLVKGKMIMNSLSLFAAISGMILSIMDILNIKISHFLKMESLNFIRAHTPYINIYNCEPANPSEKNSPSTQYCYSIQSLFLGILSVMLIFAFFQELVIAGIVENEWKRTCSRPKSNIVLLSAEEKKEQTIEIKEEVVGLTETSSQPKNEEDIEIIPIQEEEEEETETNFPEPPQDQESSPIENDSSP

B1: Rc66SIDE (One-arm antibody) (antibody, human IgG1, kappa)
light: QIVLSQSPAILSASPGEKVTMTCRASSSVSYIHWFQQKPGSSPKPWIYATSNLASGVPVRFSGSGSGTSYSLTISRVEAEDAATYYCQQWTSNPPTFGGGTKLEIKRTVAAPSVFIFPPSDEQLKSGTASVVCLLNNFYPREAKVQWKVDNALQSGNSQESVTEQDSKDSTYSLSSTLTLSKADYEKHKVYACEVTHQGLSSPVTKSFNRGEC
heavy: QVQLQQPGAELVKPGASVKMSCKASGYTFTSYNMHWVKQTPGRGLEWIGAIYPGNGDTSYNQKFKGKATLTADKSSSTAYMQLSSLTSEDSAVYYCARSTYYGGDWYFNVWGAGTTVTVSAASTKGPSVFPLAPSSKSTSGGTAALGCLVKDYFPEPVTVSWNSGALTSGVHTFPAVLQSSGLYSLSSVVTVPSSSLGTQTYICNVNHKPSNTKVDKKAEPKSCDKTHTCPPCPAPELLGGPDVFLFPPKPKDTLMISRTPEVTCVVVDVSHEDPEVKFNWYVDGVEVHNAKTKPREEQYNSTYRVVSVLTVLHQDWLNGKEYKCKVSNKALPAPEEKTISKAKGQPREPQVYVLPPSRDELTKNQVSLLCLVKGFYPSDIAVEWESNGQPENNYLTWPPVLDSDGSFFLYSKLTVDKSRWQQGNVFSCSVMHEALHNHYTQKSLSLSPGK
chain: CPPCPAPELLGGPDVFLFPPKPKDTLMISRTPEVTCVVVDVSHEDPEVKFNWYVDGVEVHNAKTKPREEQYNSTYRVVSVLTVLHQDWLNGKEYKCKVSNKALPAPEEKTISKAKGQPREPQVYVYPPSRDELTKNQVSLTCLVKGFYPSDIAVEWESNGQPENNYKTTPPVLDSDGSFALVSKLTVDKSRWQQGNVFSCSVMHEALHNHYTQKSLSLSPGK
B2: Rc66SIDE-P16-Rc66SIDE (antibody, human IgG1, kappa)
light: B1 light
heavy: B1 heavy
chain: B1 chain
B3: Rc66SIDE-P28-Rc66SIDE (antibody, human IgG1, kappa)
light: B1 light
heavy: B1 heavy
chain: B1 chain
B4: Rc66SIDE-P4-Rc66SIDE (antibody, human IgG1, kappa)
light: B1 light
heavy: B1 heavy
chain: B1 chain
B5: B19c66 (one-arm antibody) (antibody, human IgG1, kappa)
light: not shown
heavy: not shown
chain: B1 chain with D14S, E107I
B6: B19c66AAC9 (one-arm antibody) (antibody, human IgG1, kappa)
light: not shown
heavy: QVQLQQSGAELVRPGSSVKISCKASGYAFSSYWMNWVKQRPGQGLEWIGQIWPGDGDTNYNGKFKGKATLTADESSSTAYMQLSSLASEDSAVYFCARRETTTVGRYYYAMDYWGQGTTVTVSSASTKGPSVFPLAPSSKSTSGGTAALGCLVKDYFPEPVTVSWNSGALTSGVHTFPAVLQSSGLYSLSSVVTVPSSSLGTQTYICNVNHKPSNTKVDKKVEPKSCDKTHTCPPCPAPKRRGGPSVFLFPPKPKDTLMISRTPEVTCVVVDVSHEDPEVKFNWYVDGVEVHNAKTKPREEQYNSTYRVVSVLTVLHQDWLNGKEYKCKVSNKALPAPIEKTISKAKGQPREPQVYVLPPSRDELTKNQVSLLCLVKGFYPSDIAVEWESNGQPENNYLTWPPVLDSDGSFFLYSKLTVDKSRWQQGNVFSCSVMHEALHNHYTQKSLSLSPGK
chain: B1 chain with L9D, L10E, D14S, E107I

What follows are binders tested against T1, recombinant human Fc gamma receptor ….

Binder | Kd [nM]
B1 | 253
B2 | 0.556
B3 | 7.28
B4 | 3.17

These binders were tested against T2, recombinant human Fc gamma receptor ….

Binder | Kd [nM]
B1 | 202
B2 | 1.83
B3 | 8.11
B4 | 4.93

What follows are binders tested against T3, recombinant human Fc gamma receptor ….

Binder | Kd [nM]
B1 | 255
B2 | 0.808
B3 | 5.42
B4 | 2.54

What follows are binders tested against recombinant human Fc gamma receptor CD16b (FcRγIIIb) (human, UniProt O75015 17-200).
Sequence of recombinant human Fc gamma receptor CD16b (FcRγIIIb) (O75015 17-200 limits assumed): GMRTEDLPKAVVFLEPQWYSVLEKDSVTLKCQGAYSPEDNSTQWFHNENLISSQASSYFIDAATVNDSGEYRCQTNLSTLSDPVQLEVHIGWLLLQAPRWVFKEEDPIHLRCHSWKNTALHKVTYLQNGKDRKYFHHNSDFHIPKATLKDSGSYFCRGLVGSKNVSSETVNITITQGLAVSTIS

Binder | Kd [nM]
B1 | 163
B2 | < 0.001
B3 | 5.64
B4 | 1.05

These binders were tested against recombinant human Fc gamma receptor CD16a 158F (FcRγIIIa) (human, UniProt P08637 17-208).
Sequence of recombinant human Fc gamma receptor CD16a 158F (FcRγIIIa) (P08637 17-208 limits assumed): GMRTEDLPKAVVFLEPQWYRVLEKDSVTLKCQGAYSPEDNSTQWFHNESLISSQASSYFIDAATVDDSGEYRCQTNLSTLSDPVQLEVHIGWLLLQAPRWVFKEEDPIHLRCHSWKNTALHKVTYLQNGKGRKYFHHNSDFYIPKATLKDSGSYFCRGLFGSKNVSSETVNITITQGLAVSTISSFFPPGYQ

Binder | Kd [nM]
B1 | 76.8
B2 | 2.71
B3 | 6.62
B4 | 3.87

The binders below were run against T6, recombinant human Fc gamma receptor CD16a 158V (FcRγIIIa) (human, UniProt P08637 17-208).
T6 sequence (P08637 17-208 F176V limits assumed): as the sequence (P08637 17-208 limits assumed) above, with F160V counted along it

Binder | Kd [nM]
B1 | 46.2
B2 | 0.257
B3 | 4.98
B4 | 1.14

Each binder was assayed against recombinant human Fc gamma receptor CD64 (FcRγI) (human, UniProt P12314 16-288).
Sequence of recombinant human Fc gamma receptor CD64 (FcRγI) (P12314 16-288 limits assumed): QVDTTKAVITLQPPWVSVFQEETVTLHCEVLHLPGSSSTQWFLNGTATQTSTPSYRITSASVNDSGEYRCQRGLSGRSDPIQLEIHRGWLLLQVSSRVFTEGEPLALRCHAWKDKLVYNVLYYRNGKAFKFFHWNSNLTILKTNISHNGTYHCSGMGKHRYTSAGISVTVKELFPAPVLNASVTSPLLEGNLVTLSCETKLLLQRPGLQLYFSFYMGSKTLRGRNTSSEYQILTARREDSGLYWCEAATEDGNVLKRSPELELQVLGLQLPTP

Binder | Kd [nM]
B2 | < 0.001
B3 | 1.14
B4 | < 0.001

What follows are binders tested against T4, CD19.

Binder | Kd [nM]
B5 | 21.8
B6 | 21

These binders were tested against T5, CD20 Lipoparticles.

Binder | Kd [nM]
B1 | 21.4
B2 | < 0.001
B3 | < 0.001
B4 | < 0.001

Biological target: T6, recombinant human Fc gamma receptor …
Remark: another data set of the same source

Binder | Kd [nM]
B5 | 234

From US20230220115A1 (BIOMOLECULAR, published 2023)
